US11703510B2, “Methods and products for in vivo enzyme profiling” (Massachusetts Institute of Technology, priority 2009, dated 2023)
Square brackets hold non-standard residues; d marks the D form. Ends that are not written are not given here. fluorescein = fluorescein label at the N-terminus

Assay: Optimization of peptide reporters for LC/MS detection
Settings: compared with other peptides of the same proteolytic-product group with longer or less hydrophilic caps; FIG. 8B
From the text: A series of peptides (A1-A14) of different sequence were investigated to determine optimal sequence length and charge density that would enable facile detection via LC/MS. Three representative proteolytic products, sequences GGVVVLS (SEQ ID NO: 19), GGPVG (SEQ ID NO: 13), and GGdFPipR (SEQ ID NO: 17) were selected and appended with peptide caps of differing length and charge density (FIG. 8A). The sequences were then detected via LC/MS. […] A hydrophilic molecule is a molecule that can transiently hydrogen-bond with water and is, thus, soluble in water and, in some embodiments, in other polar solvents. Hydrophilicity of peptides can be modulated according to methods well known in the art. In some embodiments, removal of the fluorescein tag will increase the hydrophilicity of the peptides reported in this disclosure. In some embodiments, modification of the sequences to contain positively charged residues (Histidine, Lysine, and Arginine) and/or negatively charged residues (glutamic acid and aspartic acid) will increase the hydrophilicity. […] Of the tested cap sequences Fl-dR-dS-dR (SEQ ID NO: 20) and Fl-dR-G-dS-dR (SEQ ID NO: 21) were determined to be advantageous. Accordingly, for non-fluorescent detection, the cap sequences dR-dS-dR (SEQ ID NO: 35) and dR-G-dS-dR (SEQ ID NO: 36) were determined to be advantageous. […]

Row | Substance | detection via LC/MS (normalized relative intensities of the peptide reporters)
1 | Fl-dR-G-dS-dR (fluorescein-[dR]G[dS][dR]) | advantageous
2 | Fl-dR-dS-dR (fluorescein-[dR]-[dS]-[dR]) | advantageous
